The target of experiment [1] is recombinant mouse FcRn, biotinylated, immobilized on sensor chip (mouse) (UniProt Q61559). The experiment is described as follows: SPR (Biacore), immobilized biotinylated mouse FcRn, analyte 0.78-100 nM, pH 5.4; Chi2 10.1. (In SPR one partner is held on a chip, and binding of the other changes the refractive index at the surface.)
The target is the same in experiment [2]. The experiment is described as follows: SPR (Biacore), immobilized biotinylated mouse FcRn, analyte 0.78-100 nM, pH 6.4; Chi2 0.3.
Experiment [3] shares this target. The experiment is described as follows: SPR (Biacore), immobilized biotinylated mouse FcRn, analyte 0.78-100 nM, pH 5.4; Chi2 2.5.
For experiment [4] the target is unchanged. The experiment is described as follows: SPR (Biacore), immobilized biotinylated mouse FcRn, analyte 0.78-100 nM, pH 6.4; Chi2 3.9.
In experiment [5] the target is recombinant human FcRn, biotinylated, immobilized on sensor chip (human) (UniProt P55899). The experiment is described as follows: SPR (Biacore 2000), biotinylated human FcRn immobilized, analyte 0.78-200 nM, pH 5.4, 25 C, Langmuir fit with drifting baseline.
Experiment [6] has as its target recombinant mouse FcRn, biotinylated, immobilized on sensor chip (mouse) (UniProt Q61559). The experiment is described as follows: SPR (Biacore 2000), biotinylated mouse FcRn immobilized, analyte 0.78-200 nM, pH 5.4, 25 C, Langmuir fit with drifting baseline.
Experiment [7] addresses neonatal Fc receptor (FcRn), endogenous mouse receptor in placenta / syncytiotrophoblast cells (mouse) (UniProt Q61559). The experiment is described as follows: cell-based or functional assay.

pKd: −log10 of the molar value.

Sequence of UniProt P55899 (P55899 24-297 limits assumed, form in doubt, chain 1 of 2): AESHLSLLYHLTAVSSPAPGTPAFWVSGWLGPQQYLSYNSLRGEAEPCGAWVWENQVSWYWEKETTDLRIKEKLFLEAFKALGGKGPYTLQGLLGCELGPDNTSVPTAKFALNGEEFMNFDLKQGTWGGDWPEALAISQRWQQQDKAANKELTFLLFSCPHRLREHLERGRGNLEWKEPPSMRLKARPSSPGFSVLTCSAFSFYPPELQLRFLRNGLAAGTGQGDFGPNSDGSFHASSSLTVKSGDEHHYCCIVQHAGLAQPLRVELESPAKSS
Sequence of UniProt P55899 (chain, as listed by the source limits assumed, form in doubt, chain 2 of 2): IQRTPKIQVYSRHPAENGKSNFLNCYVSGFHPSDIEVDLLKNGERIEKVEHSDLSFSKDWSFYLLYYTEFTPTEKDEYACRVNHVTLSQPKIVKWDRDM

What is called pKd is the Kd on a negative log10 scale, so that one unit is a factor of ten. As a reminder, the koff is the first-order rate constant of dissociation. By kon is commonly meant the second-order rate constant of association. Take “A2Fc (A2 domain of FVIII fused to mouse Fc gamma 1) (from UniProt P00451 392-759) (Fc fusion)”: in experiment [1], the pKd was 8.07, the koff turned out to be 0.00218 s⁻¹ and the kon was 256000 M⁻¹ s⁻¹. In addition, in experiment [2], the pKd is 7.28, the koff is 0.0016 s⁻¹ and the on-rate constant (kon) turned out to be 30000 M⁻¹ s⁻¹.

For “C2Fc (C2 domain of FVIII fused to mouse Fc gamma 1) (from UniProt P00451 2192-2351) (Fc fusion)”, in experiment [3], the pKd was 8.43, the koff stood at 0.0011 s⁻¹ and the kon turned out to be 292000 M⁻¹ s⁻¹. Further, in experiment [4], the negative-log Kd (pKd) was 7.28, the koff worked out at 0.00347 s⁻¹ and the kon was 65000 M⁻¹ s⁻¹.

For “PPI2-Fc fusion protein (mouse preproinsulin 2 fused to the CH2-CH3 Fc domain of human IgG1) (from UniProt P01326 25-110)”, in experiment [5], the pKd is 7.82, the koff was found to be 0.00318 s⁻¹ and the kon was 208000 M⁻¹ s⁻¹. For the same substance, in experiment [6], the negative-log Kd (pKd) was 8.27, the off-rate (koff) was determined as 0.00159 s⁻¹ and the kon was found to be 292000 M⁻¹ s⁻¹.

As to “anti-CD20 rituximab monoclonal antibody (Roche), used as human IgG1 control”, in experiment [5], the pKd was 8.19, the koff turned out to be 0.00492 s⁻¹ and the kon is 765000 M⁻¹ s⁻¹. Moreover, in experiment [6], the pKd is 8.82, the dissociation rate constant (koff) worked out at 0.00248 s⁻¹ and the kon came to 1.63e+06 M⁻¹ s⁻¹. For the same substance, the diabetes-free offspring after IgG pre-treatment of pregnant mice 24 h before PPI-Fc (% diabetes-free mice) in experiment [7] came to 49.

The values above are taken from patent publication US20170072032A1.
